target: C1s (Kordia, The Netherlands/Enzyme Research Lab. Inc., USA) (UniProt P09871); assay: cell-based or functional assay
Sequence of UniProt P09871 (P09871 16-688 limits assumed): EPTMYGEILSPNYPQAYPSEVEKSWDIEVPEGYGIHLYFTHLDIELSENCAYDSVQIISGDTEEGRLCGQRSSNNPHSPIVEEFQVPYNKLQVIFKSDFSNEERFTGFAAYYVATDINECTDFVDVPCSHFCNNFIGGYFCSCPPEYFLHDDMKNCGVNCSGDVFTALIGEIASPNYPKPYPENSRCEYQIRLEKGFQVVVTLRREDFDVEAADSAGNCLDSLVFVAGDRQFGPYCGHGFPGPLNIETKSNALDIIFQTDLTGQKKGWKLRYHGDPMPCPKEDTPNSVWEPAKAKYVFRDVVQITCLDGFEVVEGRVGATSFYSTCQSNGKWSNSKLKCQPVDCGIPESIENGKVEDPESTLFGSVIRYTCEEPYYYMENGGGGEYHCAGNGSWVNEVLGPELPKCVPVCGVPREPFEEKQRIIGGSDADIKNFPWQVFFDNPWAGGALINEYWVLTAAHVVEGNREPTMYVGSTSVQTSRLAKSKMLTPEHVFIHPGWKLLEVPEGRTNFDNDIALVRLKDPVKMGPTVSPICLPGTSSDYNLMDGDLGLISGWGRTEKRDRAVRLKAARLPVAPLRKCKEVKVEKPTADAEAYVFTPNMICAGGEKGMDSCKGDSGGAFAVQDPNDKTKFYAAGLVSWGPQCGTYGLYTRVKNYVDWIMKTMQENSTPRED

Row | functionality index (F.I.): ratio between functionally active C1 inhibitor (C1s inhibition test) and total C1 inhibitor antigen | Substance
1 | 1.15 | recombinant human C1 inhibitor purified from milk of transgenic rabbit line 2972p (from UniProt P05155 23-500)
2 | 0.91 | recombinant human C1 inhibitor purified from milk of transgenic rabbit line 2977q (from UniProt P05155 23-500)
3 | 1.07 | recombinant human C1 inhibitor purified from milk of transgenic rabbit line 2972q (from UniProt P05155 23-500)
4 | 1.07 | Cetor (C1 inhibitor purified from pooled human plasma, CLB, The Netherlands) (from UniProt P05155 23-500)
